Molecular target: C3d, the covalently bound activation product of complement C3, in mouse myocardium (mouse (endogenous in C57BL/6 heart)) (UniProt P01027)
Test: ex vivo organ biodistribution (gamma counting); organs removed after imaging, weighed and gamma counted; heart to blood ratio of injected dose per gram

UniProt P01027, sequence (P01027 1002-1303): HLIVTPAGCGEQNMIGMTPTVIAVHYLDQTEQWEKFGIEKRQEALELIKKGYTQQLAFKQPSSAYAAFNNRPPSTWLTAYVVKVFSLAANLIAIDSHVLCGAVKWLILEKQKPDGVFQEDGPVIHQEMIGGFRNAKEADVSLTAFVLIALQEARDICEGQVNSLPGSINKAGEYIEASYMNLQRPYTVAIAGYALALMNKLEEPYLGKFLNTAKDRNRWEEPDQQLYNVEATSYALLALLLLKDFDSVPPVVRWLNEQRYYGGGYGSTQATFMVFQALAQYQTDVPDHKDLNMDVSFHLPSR

99mTechnecium-labelled recombinant complement receptor 2 (SCR1 and SCR2 of human CR2) (domain or fragment)
heart to blood ratio of %ID/g (heart to blood ratio of %ID/g): 1.17

— publication PMC5700950
